Data taken from the supplement of paper PMC10065799, “High-throughput profiling of sequence recognition by tyrosine kinases and SH2 domains using bacterial peptide display” (eLife, 2023).

Legend:
c-Src = assay: phosphorylation enrichment, bacterial display (enrichment ratio); higher = better substrate or ligand; peptides without Tyr show the background
AncSZ = assay: as above
EPHB2 = EPHB2 (UniProt P29323); assay: as above
FGFR1 = FGFR1 (UniProt P11362); assay: as above
EPHB1 = EPHB1 (UniProt P54762); assay: as above
Fes = Fes (UniProt P07332); assay: as above
Sequence of Fes (P07332 whole entry, looked up): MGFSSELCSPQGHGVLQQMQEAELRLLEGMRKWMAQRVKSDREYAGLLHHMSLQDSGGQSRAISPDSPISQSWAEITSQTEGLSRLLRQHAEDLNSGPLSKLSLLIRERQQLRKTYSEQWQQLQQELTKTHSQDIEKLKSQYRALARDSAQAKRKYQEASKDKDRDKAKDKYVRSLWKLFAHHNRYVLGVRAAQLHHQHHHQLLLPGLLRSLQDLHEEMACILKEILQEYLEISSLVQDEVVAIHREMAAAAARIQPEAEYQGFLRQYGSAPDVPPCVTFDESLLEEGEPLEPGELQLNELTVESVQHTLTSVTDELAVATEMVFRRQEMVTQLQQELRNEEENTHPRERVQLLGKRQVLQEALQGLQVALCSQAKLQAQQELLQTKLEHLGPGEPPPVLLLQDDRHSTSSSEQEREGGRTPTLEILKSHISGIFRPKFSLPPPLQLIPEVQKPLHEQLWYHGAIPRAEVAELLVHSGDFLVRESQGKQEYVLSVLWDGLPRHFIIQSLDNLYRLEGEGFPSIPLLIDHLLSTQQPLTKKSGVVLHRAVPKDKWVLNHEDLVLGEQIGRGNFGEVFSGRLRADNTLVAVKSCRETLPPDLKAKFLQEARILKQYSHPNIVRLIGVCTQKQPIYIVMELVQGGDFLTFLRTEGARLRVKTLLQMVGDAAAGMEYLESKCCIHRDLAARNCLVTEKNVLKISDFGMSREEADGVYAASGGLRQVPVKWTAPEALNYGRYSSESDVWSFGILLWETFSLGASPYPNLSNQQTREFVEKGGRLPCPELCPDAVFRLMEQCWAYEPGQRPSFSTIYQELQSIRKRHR

Fyn = Fyn (UniProt P06241); assay: as above
Sequence of Fyn (P06241 whole entry, looked up): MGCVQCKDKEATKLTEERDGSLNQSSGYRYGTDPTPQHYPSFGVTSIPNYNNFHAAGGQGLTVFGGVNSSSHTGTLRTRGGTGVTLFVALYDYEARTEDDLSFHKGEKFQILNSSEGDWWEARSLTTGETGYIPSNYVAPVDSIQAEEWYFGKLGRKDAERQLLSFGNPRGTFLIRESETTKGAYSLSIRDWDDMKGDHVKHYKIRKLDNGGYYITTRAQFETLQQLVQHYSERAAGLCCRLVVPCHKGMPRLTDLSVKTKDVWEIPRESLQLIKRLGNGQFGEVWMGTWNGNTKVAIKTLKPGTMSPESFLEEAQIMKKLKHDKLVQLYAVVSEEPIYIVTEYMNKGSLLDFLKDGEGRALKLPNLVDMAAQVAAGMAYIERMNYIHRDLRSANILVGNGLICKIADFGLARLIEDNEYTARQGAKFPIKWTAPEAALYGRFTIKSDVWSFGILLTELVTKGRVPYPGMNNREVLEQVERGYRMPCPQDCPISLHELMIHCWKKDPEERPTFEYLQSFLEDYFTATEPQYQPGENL

MERTK = MERTK (UniProt Q12866); assay: as above
Hck = Hck (UniProt P08631); assay: as above
Sequence of Hck (P08631 whole entry, looked up): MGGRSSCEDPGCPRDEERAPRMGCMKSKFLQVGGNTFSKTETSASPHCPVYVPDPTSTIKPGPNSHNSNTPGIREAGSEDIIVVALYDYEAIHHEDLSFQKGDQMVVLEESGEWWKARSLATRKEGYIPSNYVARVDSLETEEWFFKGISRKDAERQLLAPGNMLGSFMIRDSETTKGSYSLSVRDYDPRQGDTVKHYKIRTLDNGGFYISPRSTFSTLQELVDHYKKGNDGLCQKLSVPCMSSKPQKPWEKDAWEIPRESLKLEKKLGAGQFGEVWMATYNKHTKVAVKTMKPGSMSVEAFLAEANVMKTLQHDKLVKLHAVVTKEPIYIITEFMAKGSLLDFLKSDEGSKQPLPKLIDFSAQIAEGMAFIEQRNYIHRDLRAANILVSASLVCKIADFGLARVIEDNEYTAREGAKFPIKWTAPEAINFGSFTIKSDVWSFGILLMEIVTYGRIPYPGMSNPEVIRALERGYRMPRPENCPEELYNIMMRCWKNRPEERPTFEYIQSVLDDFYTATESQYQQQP

Fer (mouse) = assay: as above
Jak2 = Jak2 (UniProt O60674); assay: as above
Sequence of Jak2 (O60674 whole entry, looked up): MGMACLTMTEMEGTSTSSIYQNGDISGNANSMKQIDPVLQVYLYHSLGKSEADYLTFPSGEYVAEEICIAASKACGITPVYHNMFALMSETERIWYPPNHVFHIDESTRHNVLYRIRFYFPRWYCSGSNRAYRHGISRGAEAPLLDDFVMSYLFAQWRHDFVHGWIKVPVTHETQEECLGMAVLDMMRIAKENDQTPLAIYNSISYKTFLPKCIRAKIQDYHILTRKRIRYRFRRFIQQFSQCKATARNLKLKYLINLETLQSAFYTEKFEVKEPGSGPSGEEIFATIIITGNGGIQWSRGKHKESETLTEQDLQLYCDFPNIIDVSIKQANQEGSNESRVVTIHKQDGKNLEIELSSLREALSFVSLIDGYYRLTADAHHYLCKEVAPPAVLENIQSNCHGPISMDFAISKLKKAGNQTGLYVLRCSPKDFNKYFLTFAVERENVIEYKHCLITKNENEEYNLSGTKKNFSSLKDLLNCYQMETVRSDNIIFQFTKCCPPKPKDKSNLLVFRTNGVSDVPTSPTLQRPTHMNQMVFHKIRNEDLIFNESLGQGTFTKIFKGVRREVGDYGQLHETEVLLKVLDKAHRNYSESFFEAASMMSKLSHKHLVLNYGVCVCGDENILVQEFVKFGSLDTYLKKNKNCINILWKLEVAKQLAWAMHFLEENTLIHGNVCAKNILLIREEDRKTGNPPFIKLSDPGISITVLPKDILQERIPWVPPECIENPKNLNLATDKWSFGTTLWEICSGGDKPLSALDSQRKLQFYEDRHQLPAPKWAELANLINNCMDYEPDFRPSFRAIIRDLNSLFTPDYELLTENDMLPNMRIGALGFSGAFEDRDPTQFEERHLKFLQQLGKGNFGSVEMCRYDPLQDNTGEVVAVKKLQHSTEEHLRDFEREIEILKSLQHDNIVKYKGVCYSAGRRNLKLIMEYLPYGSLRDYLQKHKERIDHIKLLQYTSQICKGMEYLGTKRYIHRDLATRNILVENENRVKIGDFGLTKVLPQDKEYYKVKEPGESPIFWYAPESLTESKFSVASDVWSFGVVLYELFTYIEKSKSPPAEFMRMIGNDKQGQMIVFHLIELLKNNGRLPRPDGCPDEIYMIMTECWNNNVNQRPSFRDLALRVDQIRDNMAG

FGFR3 = FGFR3 (UniProt P22607); assay: as above
Sequence of FGFR3 (P22607 whole entry, looked up): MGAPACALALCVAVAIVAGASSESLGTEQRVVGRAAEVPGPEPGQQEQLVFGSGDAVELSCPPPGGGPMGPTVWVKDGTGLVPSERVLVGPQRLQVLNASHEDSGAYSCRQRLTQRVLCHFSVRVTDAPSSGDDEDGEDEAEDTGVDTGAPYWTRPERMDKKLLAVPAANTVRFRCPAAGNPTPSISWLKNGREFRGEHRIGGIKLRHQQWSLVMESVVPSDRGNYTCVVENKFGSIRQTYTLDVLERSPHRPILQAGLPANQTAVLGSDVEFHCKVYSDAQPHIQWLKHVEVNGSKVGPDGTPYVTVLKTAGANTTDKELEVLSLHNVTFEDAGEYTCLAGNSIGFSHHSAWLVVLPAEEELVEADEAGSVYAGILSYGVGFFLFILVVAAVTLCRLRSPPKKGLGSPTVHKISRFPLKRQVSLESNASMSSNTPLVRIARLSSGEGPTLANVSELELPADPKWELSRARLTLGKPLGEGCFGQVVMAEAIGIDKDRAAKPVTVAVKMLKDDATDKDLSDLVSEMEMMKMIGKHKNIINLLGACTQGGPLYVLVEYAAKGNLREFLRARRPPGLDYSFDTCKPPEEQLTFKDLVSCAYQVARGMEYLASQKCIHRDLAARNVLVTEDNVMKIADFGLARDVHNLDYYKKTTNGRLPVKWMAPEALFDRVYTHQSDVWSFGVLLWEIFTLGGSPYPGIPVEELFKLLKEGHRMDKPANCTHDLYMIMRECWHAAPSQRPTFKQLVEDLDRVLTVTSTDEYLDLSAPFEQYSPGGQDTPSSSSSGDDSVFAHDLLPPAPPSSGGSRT

c-Abl (mouse) = assay: as above
c-Src SH2 = assay: SH2 binding enrichment of the phosphorylated peptide, bacterial display (enrichment ratio); higher = better substrate or ligand; peptides without Tyr show the background
SHP2-C SH2 = assay: as above
Grb2 SH2 = Grb2 SH2 (UniProt P62993); assay: as above
Sequence of Grb2 SH2 (P62993 whole entry, looked up, the tested form may be a part): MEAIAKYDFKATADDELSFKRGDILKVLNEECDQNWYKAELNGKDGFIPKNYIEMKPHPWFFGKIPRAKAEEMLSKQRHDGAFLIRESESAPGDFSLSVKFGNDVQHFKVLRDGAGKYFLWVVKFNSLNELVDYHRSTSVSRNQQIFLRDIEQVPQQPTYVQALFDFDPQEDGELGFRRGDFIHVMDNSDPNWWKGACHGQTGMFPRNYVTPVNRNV
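For SH2 binding enrichment of the phosphorylated peptide, bacterial display in this document: peptide library displayed on the E. coli surface as eCPX fusions, selected cells deep-sequenced, score is each peptide's frequency after selection divided by its frequency in the input.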
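For phosphorylation enrichment, bacterial display in this document: 11-residue human phosphosite peptides and single-mutation variants displayed on the E. coli surface, counted by deep sequencing, each peptide's frequency after selection divided by its frequency in the unselected input library; frequency after pTyr selection over input frequency; kinase dosed for 20-30% of maximal phosphorylation in three min.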

Sequence of FGFR1 (P11362 whole entry, looked up): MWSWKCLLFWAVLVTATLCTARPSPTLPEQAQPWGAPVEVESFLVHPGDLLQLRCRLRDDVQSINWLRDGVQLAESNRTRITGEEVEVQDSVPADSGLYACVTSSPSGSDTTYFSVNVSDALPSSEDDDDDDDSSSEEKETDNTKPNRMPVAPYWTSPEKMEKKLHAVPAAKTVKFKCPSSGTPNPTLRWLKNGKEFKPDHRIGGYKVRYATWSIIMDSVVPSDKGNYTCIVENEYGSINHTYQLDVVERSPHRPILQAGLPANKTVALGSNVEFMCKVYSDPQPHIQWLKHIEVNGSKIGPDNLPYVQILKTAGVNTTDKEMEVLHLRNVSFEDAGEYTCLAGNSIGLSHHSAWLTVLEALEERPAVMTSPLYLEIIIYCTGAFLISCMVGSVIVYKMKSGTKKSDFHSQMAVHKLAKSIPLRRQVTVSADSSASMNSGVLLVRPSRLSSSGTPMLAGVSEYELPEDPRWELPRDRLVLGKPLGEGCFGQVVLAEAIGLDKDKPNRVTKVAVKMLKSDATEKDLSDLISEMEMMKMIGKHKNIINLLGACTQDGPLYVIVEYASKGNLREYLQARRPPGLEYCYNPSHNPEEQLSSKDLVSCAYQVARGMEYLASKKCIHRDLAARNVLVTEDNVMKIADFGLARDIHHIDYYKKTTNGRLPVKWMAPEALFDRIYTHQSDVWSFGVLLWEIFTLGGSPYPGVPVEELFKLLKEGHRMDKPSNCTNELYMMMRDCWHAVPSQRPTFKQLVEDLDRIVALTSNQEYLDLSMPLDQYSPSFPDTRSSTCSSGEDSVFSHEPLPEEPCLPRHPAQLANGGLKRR

| Sequence | phosphorylation enrichment (c-Src) | phosphorylation enrichment (AncSZ) | phosphorylation enrichment (EPHB2) | phosphorylation enrichment (FGFR1) | phosphorylation enrichment (EPHB1) | phosphorylation enrichment (Fes) | phosphorylation enrichment (Fyn) | phosphorylation enrichment (MERTK) | phosphorylation enrichment (Hck) | phosphorylation enrichment (Fer (mouse)) | phosphorylation enrichment (Jak2) | phosphorylation enrichment (FGFR3) | phosphorylation enrichment (c-Abl (mouse)) | SH2 binding enrichment (c-Src SH2) | SH2 binding enrichment (SHP2-C SH2) | SH2 binding enrichment (Grb2 SH2) |
| --- | --- | --- | --- | --- | --- | --- | --- | --- | --- | --- | --- | --- | --- | --- | --- | --- |
| CTTIHYTFMCN [TP53_Y234_N235T_YF] | 0.653 | 0.939 | 0.553 | 0.718 | 0.562 | 1.14 | 0.535 | 0.536 | 0.576 | 0.575 | 0.976 | 0.754 | 0.819 | 1.85 | 3.21 | 1.83 |
| EFENSCIFDIN [GAB1_Y83_Y83C] | 0.397 | 0.958 | 0.431 | 0.45 | 0.403 | 0.963 | 0.483 | 0.895 | 0.406 | 0.42 | 0.824 | 0.632 | 0.673 | 0.786 | 0.732 | 1.18 |
| FALAEYTEVKT [ALDH1A3_Y497_YF] | 0.621 | 1.03 | 0.475 | 0.894 | 0.59 | 1.11 | 0.719 | 0.45 | 0.635 | 0.567 | 0.765 | 0.903 | 0.757 | 1.9 | 0.506 | 0.861 |
| VRRRSYSAGNA [KANK1_Y324_K321R] | 0.58 | 0.567 | 0.603 | 0.549 | 0.404 | 0.49 | 0.504 | 0.509 | 0.516 | 0.664 | 0.471 | 0.742 | 0.613 | 0.488 | 0.557 | 0.706 |
| AFSTVYKGLWI [EGFR_Y727_G724S] | 0.455 | 1.01 | 0.498 | 0.504 | 0.578 | 1.1 | 0.433 | 0.395 | 0.445 | 0.677 | 1.1 | 0.67 | 0.814 | 0.653 | 1.5 | 0.949 |
| EEQKKYFNAVK [SCN5A_Y1494_M1498V_YF] | 0.383 | 0.832 | 0.566 | 0.358 | 0.482 | 1.05 | 0.506 | 0.482 | 0.483 | 0.414 | 0.727 | 0.567 | 0.742 | 0.574 | 0.604 | 0.868 |
| YENGEYIIRQG [PRKG1_Y247] | 0.542 | 1.11 | 0.555 | 0.432 | 0.552 | 1.04 | 0.453 | 0.386 | 0.589 | 0.418 | 0.913 | 0.611 | 0.66 | 9.41 | 1.22 | 37.5 |
| AIYRRYSKFFD [SH3PXD2B_Y45] | 0.636 | 0.989 | 0.568 | 0.509 | 0.603 | 1.03 | 0.485 | 0.596 | 0.594 | 0.383 | 0.83 | 0.555 | 0.783 | 0.511 | 0.495 | 0.674 |
| RILDVYIFLGP [GAA_Y340_G335R] | 0.393 | 1 | 0.676 | 0.836 | 0.842 | 1.05 | 0.46 | 0.492 | 0.547 | 0.584 | 0.858 | 0.672 | 0.543 | 0.534 | 0.595 | 0.746 |
| PLLEYYRDIFT [CDAN1_Y713] | 0.789 | 1.7 | 1.25 | 6.73 | 1.38 | 1.81 | 0.704 | 0.782 | 0.846 | 1.02 | 4.74 | 5.58 | 1.45 | 1.04 | 0.777 | 1.16 |
| ALWFIYSHTRS [ENG_Y614_YF] | 0.379 | 1.01 | 0.445 | 0.44 | 0.597 | 1.5 | 0.423 | 0.34 | 0.448 | 0.45 | 0.956 | 0.676 | 0.697 | 0.552 | 0.81 | 1.13 |
| YLQEIHNSNNQ [FGG_Y140_Y140H] | 0.414 | 0.618 | 0.431 | 0.404 | 0.427 | 0.63 | 0.431 | 0.484 | 0.432 | 0.349 | 0.563 | 0.63 | 0.445 | 0.578 | 0.871 | 0.802 |
| KRGVSYILKLA [SERPINB1_Y84_A82V] | 0.412 | 1.4 | 0.557 | 0.534 | 0.504 | 1.6 | 0.426 | 0.446 | 0.558 | 0.524 | 1.34 | 0.676 | 0.768 | 0.763 | 0.797 | 1.28 |
| MKKKTYAMGGG [GAN_Y424_I423T] | 1 | 0.705 | 1.09 | 0.653 | 0.857 | 0.862 | 0.428 | 0.578 | 0.908 | 0.567 | 0.865 | 0.531 | 0.761 | 0.438 | 0.233 | 0.728 |
| LAARYYNWVSF [FLT4_Y1231] | 1 | 1.55 | 1.02 | 4.29 | 1.09 | 1.8 | 0.654 | 4.42 | 0.64 | 5.18 | 2.14 | 3.57 | 1.68 | 2.3 | 1.38 | 6.96 |
| GTCGGYCSVLG [RAB18_Y202_A198T] | 0.42 | 0.532 | 0.353 | 0.37 | 0.344 | 0.488 | 0.397 | 0.527 | 0.388 | 0.389 | 0.451 | 0.488 | 0.401 | 8.16 | 2.08 | 0.842 |
